Assay results: US20220242946A1 (Johns Hopkins, published 2022)
Where two headings read alike, the source gives them in different places.

Key:
[1] = biological target: human IL-2 (residues 1-133) displayed on the surface of yeast (human, UniProt P60568 21-153); experiment: titration of soluble antibody on yeast-displayed hIL-2, flow cytometry; apparent bivalent affinity
Protocol: After a final wash, cells were analyzed for antibody binding using a CytoFLEX flow cytometer (Beckman Coulter). Background-subtracted and normalized binding curves were fitted to a first-order binding model and equilibrium dissociation constant (KD) values were determined using GraphPad Prism.
After a 3-day incubation, secreted protein was captured from the supernatant with protein G resin, eluted with 0.1 M glycine pH 2.0, and analyzed via SDS-PAGE. […] Immunocytokine expression was scaled up in HEK 293F cells and the secreted protein was purified via protein G affinity chromatography followed by size-exclusion chromatography.

[2] = biological target: T1, biotinylated human IL-2 immobilized on streptavidin-coated tips (human, UniProt P60568 21-153, biotinylated (site not stated)); experiment: bio-layer interferometry equilibrium titration, biotinylated hIL-2 on streptavidin tips
T1 construct: The construct used for biotinylated hIL-2 is not described; probably as the soluble hIL-2 (residues 1-133) with tags; also called biotinylated hIL-2; immobilized hIL-2; not shown: tags of the biotinylated hIL-2 are not described (the biotin acceptor peptide is told only for hIL-2Ra and hIL-2Rb)
T1 sequence (P60568 21-153): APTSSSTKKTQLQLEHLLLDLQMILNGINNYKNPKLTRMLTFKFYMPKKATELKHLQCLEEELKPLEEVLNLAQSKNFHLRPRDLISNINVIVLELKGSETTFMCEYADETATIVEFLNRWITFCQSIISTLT
Protocol: (§1) Less than 5 signal units (nm) of receptor was immobilized to minimize mass transfer effects. […] Surface regeneration for all interactions was conducted using a 15 second exposure to 0.1 M glycine pH 3.0. Experiments were carried out in PB SA (phosphate-buffered saline, pH 7.3 plus 0.1% bovine serum albumin (BSA, Thermo Fisher Scientific)) at 25° C. Data was visualized and processed using the Octet® Data Analysis software version 7.1 (Molecular Devices). Equilibrium titration curve fitting and KD value determination was implemented using GraphPad Prism, assuming all binding interactions to be first order.

[3] = biological target: T1, biotinylated human IL-2 immobilized on …; experiment: as above; remark: listed apart in the source
Protocol: as §1

human IL-2 (residues 1-133) displayed on the surface of yeast, sequence (P60568 21-153 limits assumed): as the sequence (P60568 21-153) above

B1: recombinant F5111 antibody (human IgG1 lambda) (antibody, V domains shown)
VH: QLQLQESGPGLVKPSQTLSLTCTVSGGSISSGGYYWSWIRQHPGKGLEWIGYIYYSGSTYYNPSLKSRVTISVDTSKNQFSLKLSSVTAADTAVYYCARTPTVTGDWFDPWGRGTLVTVSS
VL: SNFMLTQPHSVSESPGKTVTISCTRSSGSIASNYVQWYQQRPGSSPTTVIYEDNQRPSGVPDRFSGSIDSSSNSASLTISGLKTEDEADYYCQSYDSSNVVFGGGTKLTVLG
notes: Expressed in HEK 293F cells; also called F5111 Ab; monoclonal antibody F5111
With B1 the Kd [1] was 420 pM, the “EC50 (read off the curve)” value [2] was roughly 3000 pM and the “EC50 (read off the curve)” value [3] was roughly 600 pM.
